Assay results taken from article PMC11043367.

What was measured:
[1] = target: human parechovirus 1 (PeV-A1) particles, Harris strain; assay: co-immunoprecipitation with anti-HA beads, RT-qPCR of viral RNA; conditions: IP, read off a plot
[2] = target: T1, Flag-tagged PeV-A1 virus particles; assay: pH-dependent virus particle binding assay (anti-HA immunoprecipitation), RT-qPCR of viral RNA; conditions: chain shown with the change, read off a plot
T1 chain 1: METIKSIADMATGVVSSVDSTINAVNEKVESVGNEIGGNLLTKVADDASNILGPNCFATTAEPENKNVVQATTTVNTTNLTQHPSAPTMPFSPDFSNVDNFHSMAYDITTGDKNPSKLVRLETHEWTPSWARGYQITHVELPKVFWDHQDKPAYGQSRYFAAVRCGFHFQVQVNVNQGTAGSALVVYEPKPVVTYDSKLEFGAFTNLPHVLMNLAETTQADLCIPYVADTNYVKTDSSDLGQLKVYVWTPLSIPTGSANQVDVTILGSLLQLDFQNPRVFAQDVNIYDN
T1 chain 2: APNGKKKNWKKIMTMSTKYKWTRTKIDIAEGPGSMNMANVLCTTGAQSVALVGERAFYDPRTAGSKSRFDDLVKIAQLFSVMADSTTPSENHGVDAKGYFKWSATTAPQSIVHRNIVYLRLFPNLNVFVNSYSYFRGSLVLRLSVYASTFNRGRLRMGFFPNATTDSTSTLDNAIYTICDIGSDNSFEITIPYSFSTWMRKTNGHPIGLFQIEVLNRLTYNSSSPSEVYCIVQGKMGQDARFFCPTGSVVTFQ
T1 chain 3: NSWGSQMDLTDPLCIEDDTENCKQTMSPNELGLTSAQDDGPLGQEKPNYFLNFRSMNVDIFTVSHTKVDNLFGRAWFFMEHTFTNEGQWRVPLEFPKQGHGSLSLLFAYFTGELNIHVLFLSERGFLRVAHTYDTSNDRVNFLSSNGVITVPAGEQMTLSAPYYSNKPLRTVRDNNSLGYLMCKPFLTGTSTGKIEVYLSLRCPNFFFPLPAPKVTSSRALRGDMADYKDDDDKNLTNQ

Molecule: human MYADM (myeloid-associated differentiation marker), HA-tagged (from UniProt Q96S97) D276E; V277H; S278N
- response (relative to Vero) ([1]; 0 min after infection, parent: est. 25): 5
- response (relative to Vero) ([1]; 15 min after infection, 37 °C, parent: est. 52): 1.5
- response (relative to Vero) ([1]; 30 min after infection, 37 °C, parent: est. 60): 5

B1: human MYADM (myeloid-associated differentiation marker), HA-tagged, Q96S97 D276E; V277H; S278N (protein)
chain: MPVTVTRTTITTTTTSSSGLGSPMIVGSPRALTQPLGLLRLLQLVSTCVAFSLVASVGAWTGSMGNWSMFTWCFCFSVTLIILIVELCGLQARFPLSWRNFPITFACYAALFCLSASIIYPTTYVQFLSHGRSRDHAIAATFFSCIACVAYATEVAWTRARPGEITGYMATVPGLLKVLETFVACIIFAFISDPNLYQHQPALEWCVAVYAICFILAAIAILLNLGECTNVLPIPFPSFLSGLALLSVLLYATALVLWPLYQFDEKYGGQPRRSREHNCSRSHAYYVCAWDRRLAVAILTAINLLAYVADLVHSAHLVFVKV
- response (relative to Vero) ([2]; virus particle IP buffer pH 5.5, parent: est. 3.0): 1
- response (relative to Vero) ([2]; virus particle IP buffer pH 6.0, parent: est. 6.2): 1
- response (relative to Vero) ([2]; virus particle IP buffer pH 6.5, parent: est. 5.3): 1
- response (relative to Vero) ([2]; virus particle IP buffer pH 7.4, parent: est. 1.1): 1.1
